Test results from IntAct's records for PubMed 19749176.

B1: Serine/threonine-protein phosphatase PP1-1 (Saccharomyces cerevisiae), P20604 (parent)
chain: MVSRGPDEWLETIKKCQALTENEMKQLCEMVKELLMEESNIQPVQTPVTVCGDIHGQFHDLLELFRTAGGFPDDINYIFLGDYVDRGYYSLETFTLLMCLKVKYPAKITLVRGNHESRQITQVYGFYEECLNKYGSTTVWKYCCQVFDFLTLAAIIDGKILCVHGGLSPEIRMLDQIRVLSRAQEVPHEGGFSDLLWSDPDNVEAWQVSPRGAGWLFGSKVAREFNHVNGLNLIARAHQLVMEGFKYHFPEKDVVTVWSAPNYCYRCGNVASVMKVDEDLEPTFKIFSAVPDDYIRESTANHNNQRAGYFL
partner: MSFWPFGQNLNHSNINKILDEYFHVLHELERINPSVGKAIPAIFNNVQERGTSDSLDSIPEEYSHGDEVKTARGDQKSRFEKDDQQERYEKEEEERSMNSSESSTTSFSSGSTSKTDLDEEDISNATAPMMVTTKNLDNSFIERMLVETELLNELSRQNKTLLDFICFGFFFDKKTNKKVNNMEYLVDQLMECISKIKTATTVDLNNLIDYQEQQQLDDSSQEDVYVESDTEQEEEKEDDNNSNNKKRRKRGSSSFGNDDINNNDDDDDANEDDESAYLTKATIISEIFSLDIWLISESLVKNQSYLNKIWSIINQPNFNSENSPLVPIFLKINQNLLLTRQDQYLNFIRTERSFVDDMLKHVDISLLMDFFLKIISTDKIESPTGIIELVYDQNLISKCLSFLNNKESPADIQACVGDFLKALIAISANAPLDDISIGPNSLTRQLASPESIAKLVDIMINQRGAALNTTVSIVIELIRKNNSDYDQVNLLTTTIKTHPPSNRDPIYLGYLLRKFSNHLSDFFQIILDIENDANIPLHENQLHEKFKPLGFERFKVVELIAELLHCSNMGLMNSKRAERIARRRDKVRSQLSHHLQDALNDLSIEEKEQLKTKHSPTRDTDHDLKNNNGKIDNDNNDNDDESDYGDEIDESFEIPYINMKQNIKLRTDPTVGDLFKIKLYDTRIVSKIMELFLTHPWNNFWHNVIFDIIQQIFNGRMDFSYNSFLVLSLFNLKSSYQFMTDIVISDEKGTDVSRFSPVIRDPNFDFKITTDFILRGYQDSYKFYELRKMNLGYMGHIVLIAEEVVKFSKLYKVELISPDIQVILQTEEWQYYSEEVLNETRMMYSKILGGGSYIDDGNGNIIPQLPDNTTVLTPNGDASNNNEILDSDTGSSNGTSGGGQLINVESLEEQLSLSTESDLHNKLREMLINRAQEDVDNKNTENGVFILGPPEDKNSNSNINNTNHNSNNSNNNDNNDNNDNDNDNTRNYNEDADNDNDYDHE
B2: Serine/threonine-protein phosphatase PP1-1 (Saccharomyces cerevisiae), P20604 (parent)
chain: B1 chain
partner: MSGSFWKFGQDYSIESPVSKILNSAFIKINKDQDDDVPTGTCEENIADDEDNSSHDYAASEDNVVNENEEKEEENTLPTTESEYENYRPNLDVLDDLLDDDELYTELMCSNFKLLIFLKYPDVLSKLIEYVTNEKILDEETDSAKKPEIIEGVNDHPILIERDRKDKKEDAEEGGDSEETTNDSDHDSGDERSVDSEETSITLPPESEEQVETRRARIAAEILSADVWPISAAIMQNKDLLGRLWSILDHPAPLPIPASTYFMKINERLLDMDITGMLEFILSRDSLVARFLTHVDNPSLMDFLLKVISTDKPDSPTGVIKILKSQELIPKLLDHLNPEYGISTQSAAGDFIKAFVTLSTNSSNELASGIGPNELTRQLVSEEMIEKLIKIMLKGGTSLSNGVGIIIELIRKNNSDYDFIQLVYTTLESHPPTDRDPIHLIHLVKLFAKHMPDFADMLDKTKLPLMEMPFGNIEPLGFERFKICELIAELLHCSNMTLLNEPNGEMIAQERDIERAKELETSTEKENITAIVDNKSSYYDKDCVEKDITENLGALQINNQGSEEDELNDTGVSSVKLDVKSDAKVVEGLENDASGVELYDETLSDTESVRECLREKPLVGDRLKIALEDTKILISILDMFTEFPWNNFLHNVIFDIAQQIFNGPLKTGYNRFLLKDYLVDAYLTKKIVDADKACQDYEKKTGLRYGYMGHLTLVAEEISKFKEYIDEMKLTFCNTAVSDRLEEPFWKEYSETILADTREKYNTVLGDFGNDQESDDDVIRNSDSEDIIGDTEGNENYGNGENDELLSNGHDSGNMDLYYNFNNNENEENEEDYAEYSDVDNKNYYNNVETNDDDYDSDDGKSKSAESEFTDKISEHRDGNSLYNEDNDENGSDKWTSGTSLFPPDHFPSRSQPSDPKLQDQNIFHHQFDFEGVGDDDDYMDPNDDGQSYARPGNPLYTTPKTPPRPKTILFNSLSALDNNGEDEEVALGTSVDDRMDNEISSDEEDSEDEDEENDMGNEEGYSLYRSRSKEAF

Variants of: B1
Settings: with sa155_yeast SAP155, P43612

effect of a mutation on the interaction	Variant
decreasing interaction	MVSRGPDEWLETIKKCQALTENEMKQLCEMVKELLMAASNIQPVQTPVTVCGDIHGQFHDLLELFRTAGGFPDDINYIFLGDYVDRGYYSLETFTLLMCLKVKYPAKITLVRGNHESRQITQVYGFYEECLNKYGSTTVWKYCCQVFDFLTLAAIIDGKILCVHGGLSPEIRMLDQIRVLSRAQEVPHEGGFSDLLWSDPDNVEAWQVSPRGAGWLFGSKVAREFNHVNGLNLIARAHQLVMEGFKYHFPEKDVVTVWSAPNYCYRCGNVASVMKVDEDLEPTFKIFSAVPDDYIRESTANHNNQRAGYFL [E37A;E38A]

Variants of: B2
Settings: with sa190_yeast SAP190, P36123

effect of a mutation on the interaction	Variant
decreasing interaction	MVSRGPDEWLETIKKCQALTENEMKQLCEMVKELLMAASNIQPVQTPVTVCGDIHGQFHDLLELFRTAGGFPDDINYIFLGDYVDRGYYSLETFTLLMCLKVKYPAKITLVRGNHESRQITQVYGFYEECLNKYGSTTVWKYCCQVFDFLTLAAIIDGKILCVHGGLSPEIRMLDQIRVLSRAQEVPHEGGFSDLLWSDPDNVEAWQVSPRGAGWLFGSKVAREFNHVNGLNLIARAHQLVMEGFKYHFPEKDVVTVWSAPNYCYRCGNVASVMKVDEDLEPTFKIFSAVPDDYIRESTANHNNQRAGYFL [E37A;E38A]
